This is an account of results in US20260132183A1 (ACADEMISCH ZIEKENHUIS LEIDEN H O D N LUMC, published 2026).

Sequences and labels used below:
T1: MAGE-A6 peptide on HLA-B*35:01 (human)
T1 peptide: EVDPIGHVY

T2: MAGE-A1 peptide on HLA-A*03:01 (human)
T2 peptide: SLFRAVITK

T3: MAGE-A9 peptide on HLA-A*01:01 (human)
T3 peptide: YVGKEHMFY

T4: MAGE-A3 peptide on HLA-B*35:01 (human)
T4 peptide: EVDPIGHLY

T5: MAGE-A1 peptide on HLA-B*07:02 (human)
T5 peptide: RVRFFFPSL

T6: MAGE-A1 peptide on HLA-A*02:01 (human)
T6 peptide: KVLEYVIKV

T7: MAGE-A1 peptide on HLA-C*07:02 (human)
T7 peptide: VRFFFPSL

B1: TCR CT23.2H9 (TCR, V domains shown)
Valpha: KDQVFQPSTVASSEGAVVEIFCNHSVSNAYNFFWYLHFPGCAPRLLVKGSKPSQQGRYNMTYERFSSSLLILQVREADAAVYYCAVPNNYGQNFVFGPGTRLSVLP
Vbeta: NAGVTQTPKFRILKIGQSMTLQCTQDMNHNYMYWYRQDPGMGLKLIYYSVGAGITDKGEVPNGYNVSRSTTEDFPLRLELAAPSQTSVYFCASSYSGQGLYEQYFGPGTRLTVT
B2: TCR CT23.3H4 (TCR, V domains shown)
Valpha: RKEVEQDPGPFNVPEGATVAFNCTYSNSASQSFFWYRQDCRKEPKLLMSVYSSGNEDGRFTAQLNRASQYISLLIRDSKLSDSATYLCVVNFNYGQNFVFGPGTRLSVLP
Vbeta: DTGVSQDPRHKITKRGQNVTFRCDPISEHNRLYWYRQTLGQGPEFLTYFQNEAQLEKSRLLSDRFSAERPKGSFSTLEIQRTEQGDSAMYLCASSPLGVNTEAFFGQGTRLTVV
B3: TCR CT43.2D8 (TCR, V domains shown)
Valpha: EDKVVQSPLSLVVHEGDTVTLNCSYEVTNFRSLLWYKQEKKAPTFLFMLTSSGIEKKSGRLSSILDKKELSSILNITATQTGDSAIYLCAVEGWDDKIIFGKGTRLHILP
Vbeta: DAGITQSPRHKVTETGTPVTLRCHQTENHRYMYWYRQDPGHGLRLIHYSYGVKDTDKGEVSDGYSVSRSKTEDFLLTLESATSSQTSVYFCAISEGRNEQYFGPGTRLTVT
B4: TCR CT12.3G2 (TCR, V domains shown)
Valpha: AQKVTQAQTEISVVEKEDVTLDCVYETRDTTYYLFWYKQPPSGELVFLIRRNSFDEQNEISGRYSWNFQKSTSSFNFTITASQVVDSAVYFCALSEAYSGAGSYQLTFGKGTKLSVIP
Vbeta: EPEVTQTPSHQVTQMGQEVILRCVPISNHLYFYWYRQILGQKVEFLVSFYNNEISEKSEIFDDQFSVERPDGSNFTLKIRSTKLEDSAMYFCASSEALQPQHFGDGTRLSIL
B5: TCR CT27.4F7 (TCR, V domains shown)
Valpha: GEDVEQSLFLSVREGDSSVINCTYTDSSSTYLYWYKQEPGAGLQLLTYIFSNMDMKQDQRLTVLLNKKDKHLSLRIADTQTGDSAIYFCAESIDARLMFGDGTQLVVKP
Vbeta: DSGVTQTPKHLITATGQRVTLRCSPRSGDLSVYWYQQSLDQGLQFLIQYYNGEERAKGNILERFSAQQFPDLHSELNLSSLELGDSALYFCASSPGGDTQYFGPGTRLTVL
B6: TCR CT31.10C1 (TCR, V domains shown)
Valpha: DQQVKQNSPSLSVQEGRISILNCDYTNSMFDYFLWYKKYPAEGPTFLISISSIKDKNEDGRFTVFLNKSAKHLSLHIVPSQPGDSAVYFCAASAQNNDMRFGAGTRLTVKP
Vbeta: DAGVIQSPRHEVTEMGQEVTLRCKPISGHDYLFWYRQTMMRGLELLIYFNNNVPIDDSGMPEDRFSAKMPNASFSTLKIQPSEPRDSAVYFCASGTGWDTEAFFGQGTRLTVV

For the first assay, the target named is T1, MAGE-A6 peptide on HLA-B*35:01. The assay is described as follows: cytokine release.
In the case of B1, the binding result is “recognises”.

The target of a further assay is T2, MAGE-A1 peptide on HLA-A*03:01. The assay is described as follows: multimer staining.
On to B2, for which the binding result is reported as “recognises”.

The next assay deals with T3, MAGE-A9 peptide on HLA-A*01:01. The assay is described as follows: multimer staining.
As for B3, the binding result is listed as “recognises”.

Another assay addresses T4, MAGE-A3 peptide on HLA-B*35:01. As to the kind of experiment: multimer staining.
Regarding B1, the binding result is on record as “recognises”.

A further assay has as its target T5, MAGE-A1 peptide on HLA-B*07:02. As to the kind of experiment: multimer staining.
On to B4, for which the binding result is given as “recognises”.

A further assay deals with T6, MAGE-A1 peptide on HLA-A*02:01. As to the kind of experiment: multimer staining.
Regarding B5, the binding result is on record as “recognises”.

The target in a further assay is T7, MAGE-A1 peptide on HLA-C*07:02. The assay is described as follows: multimer staining.
On to B6, for which the binding result is reported as “recognises”.

The target of a further assay is T8, HLA-A*03:01 with beta-2 microglobulin (human).
T8 construct: also called HLA-A3
As to the kind of experiment: pHLA monomer refolding.
For RVRIAYPSLR (synthetic peptide) [RVRIAYPSLR (MAGE-A4 peptide)], the binding result is reported as “binds”.
On the same count and under the same terms, the same measure for IVLGVILTK (synthetic peptide) [IVLGVILTK (MAGE-A9 peptide)]: “binds”; for RCFPVIFGK (synthetic peptide) [RCFPVIFGK (MAGE-A4 peptide)]: “binds”.
The same measure, in the same setting: the same measure for ATLPPFMCNK (synthetic peptide) [ATLPPFMCNK (SSX2 peptide)]: “binds”; for RVRFFFPSLR (synthetic peptide) [RVRFFFPSLR (MAGE-A1 peptide)]: “binds”; for SMLGDGHSMPK (synthetic peptide) [SMLGDGHSMPK (MAGE-A9 peptide)]: “binds”.
As to SVMGVYVGK (synthetic peptide) [SVMGVYVGK (MAGE-A9 peptide)], the binding result is listed as “binds”.
On the same count and under the same terms, the same measure for RIFPKIMPK (synthetic peptide) [RIFPKIMPK (SSX4 peptide)]: “binds”.

The target of another assay is T9, HLA-B*07:02 with beta-2 microglobulin (human).
T9 construct: also called HLA-B7
As to the kind of experiment: pHLA monomer refolding.
Consider RVRFFFPSL (synthetic peptide) [RVRFFFPSL (MAGE-A1 peptide)], for which the binding result is on record as “binds”.
Regarding RVRIAYPSL (synthetic peptide) [RVRIAYPSL (MAGE-A4 peptide)], the binding result was “binds”.
On the same count and under the same terms, the same measure for FPSLREAAL (synthetic peptide) [FPSLREAAL (MAGE-A1 peptide)]: “binds”; for YPSLREAAL (synthetic peptide) [YPSLREAAL (MAGE-A4 peptide)]: “binds”.
For the molecule RPADLTRVIM (synthetic peptide) [RPADLTRVIM (MAGE-A11 peptide)], the binding result is recorded as “binds”.

Another assay addresses T10, HLA-A*01:01 with beta-2 microglobulin (human).
T10 construct: also called HLA-A1
The assay is described as follows: pHLA monomer refolding.
On to YVGKEHMFY (synthetic peptide) [YVGKEHMFY (MAGE-A9 peptide)], for which the binding result is reported as “binds”.
On the same count and under the same terms, the same measure for LTQDLVQEKYLEY (synthetic peptide) [LTQDLVQEKYLEY (MAGE-A1 peptide)]: “binds”.

The target of the next assay is T11, HLA-C*07:02 with beta-2 microglobulin (human).
T11 construct: also called HLA-C7; C702
As to the kind of experiment: pHLA monomer refolding.
Regarding VRFFFPSL (synthetic peptide) [VRFFFPSL (MAGE-A1 peptide)], the binding result is reported as “binds”.

The next assay addresses T12, HLA-A*02:01 with beta-2 microglobulin (human).
T12 construct: also called HLA-A2
As to the kind of experiment: pHLA monomer refolding.
On to GVYDGREHTV (synthetic peptide) [GVYDGREHTV (MAGE-A4 peptide)], for which the binding result is recorded as “binds”.
With FVYGEPREL (synthetic peptide) [FVYGEPREL (MAGE-C2 peptide)], the binding result is recorded as “binds”.
Consider KVLEYVIKV (synthetic peptide) [KVLEYVIKV (MAGE-A1 peptide)], for which the binding result was “binds”.
Still for that read-out and setting: under VIWEVLNAV (synthetic peptide) [VIWEVLNAV (MAGE-C2 peptide)] stands “binds”.
On the same count and under the same terms, the same measure for KIWEELSVLEV (synthetic peptide) [KIWEELSVLEV (MAGE-A3/A6 peptide)]: “binds”; for ALREEEEGV (synthetic peptide) [ALREEEEGV (MAGE-A1 peptide)]: “binds”.
Same read-out and setting: the same measure for ALKDVEERV (synthetic peptide) [ALKDVEERV (MAGE-C2 peptide)]: “binds”; for TLDEKVAEL (synthetic peptide) [TLDEKVAEL (MAGE-C2 peptide)]: “binds”; for VLGEEQEGV (synthetic peptide) [VLGEEQEGV (MAGE-A9 peptide)]: “binds”.
As to GVYAGREHFV (synthetic peptide) [GVYAGREHFV (MAGE-C2 peptide)], the binding result is reported as “binds”.
In the case of KASEKIFYV (synthetic peptide) [KASEKIFYV (SSX2 peptide)], the binding result is “binds”.
Consider ALIEVGPDHFC (synthetic peptide) [ALIEVGPDHFC (MAGE-C2 peptide)], for which the binding result is reported as “binds”.
Still for that read-out and setting: the same measure for KVLEFLAKL (synthetic peptide) [KVLEFLAKL (MAGE-C2 peptide)]: “binds”.
